Measurements reported in the Immune Epitope Database (IEDB).
Each block holds one sequence with its values, some of them ahead of it.

Legend:
HLA-A*01:01 = experiment: IEDB peptide-MHC binding, purified MHC/direct/fluorescence; filed as Kd, often an IC50 or EC50 that approximates it; ≥ and ≤ were set here for values at or beyond the usual limits of such assays
HLA-A*02:01 [1] = experiment: as above
HLA-A*03:01 = experiment: as above
HLA-A*11:01 = experiment: as above
HLA-A*26:01 [2] = experiment: as above
HLA-A*31:01 = experiment: as above
HLA-A*69:01 = experiment: as above
HLA-B*07:02 = experiment: as above
HLA-B*08:01 = experiment: as above
HLA-B*15:01 = experiment: as above
HLA-B*27:05 = experiment: as above
HLA-B*35:01 = experiment: as above
HLA-B*40:01 = experiment: as above
HLA-B*44:02 = experiment: as above
HLA-B*58:01 = experiment: as above
HLA-B*15:09 = experiment: as above
HLA-B*39:01 = experiment: as above; details: source organism: Yersinia enterocolitica subsp. enterocolitica 8081
HLA-C*03:03 = experiment: as above
HLA-A*02:01 [3] = experiment: IEDB peptide-MHC binding, purified MHC/competitive/radioactivity; ≥ and ≤ were set here for values at or beyond the usual limits of such assays
HLA-A*02:19 = experiment: IEDB peptide-MHC binding, purified MHC/direct/fluorescence; filed as Kd, often an IC50 or EC50 that approximates it; ≥ and ≤ were set here for values at or beyond the usual limits of such assays; details: source organism: Limestone Canyon virus
HLA-B*18:01 = experiment: as above
HLA-B*46:01 = experiment: as above
HLA-B*48:01 = experiment: as above
HLA-B*57:01 = experiment: as above
HLA-C*06:02 = experiment: as above; details: source organism: Orthohantavirus sinnombreense
HLA-A*26:01 [4] = experiment: IEDB peptide-MHC binding, purified MHC/competitive/fluorescence; filed as Kd, often an IC50 or EC50 that approximates it; ≥ and ≤ were set here for values at or beyond the usual limits of such assays; details: source organism: Orthohantavirus sinnombreense
HLA-B*15:17 [5] = experiment: as above; details: source organism: Orthohantavirus sinnombreense
HLA-A*24:02 [6] = experiment: IEDB peptide-MHC binding, purified MHC/direct/fluorescence; filed as Kd, often an IC50 or EC50 that approximates it; ≥ and ≤ were set here for values at or beyond the usual limits of such assays
HLA-B*08:02 = experiment: as above; details: source organism: Salmonella enterica subsp. enterica serovar Typhimurium str. LT2
HLA-B*08:03 = experiment: as above; details: source organism: Salmonella enterica subsp. enterica serovar Typhimurium str. LT2
HLA-B*15:17 [7] = experiment: as above; details: source organism: Salmonella enterica
HLA-A*68:02 = experiment: IEDB peptide-MHC binding, purified MHC/competitive/fluorescence; filed as Kd, often an IC50 or EC50 that approximates it; ≥ and ≤ were set here for values at or beyond the usual limits of such assays; details: source organism: Salmonella enterica subsp. enterica serovar Typhi
HLA-B*53:01 = experiment: IEDB peptide-MHC binding, purified MHC/competitive/fluorescence; ≥ and ≤ were set here for values at or beyond the usual limits of such assays; details: source organism: Human herpesvirus 4 type 2
HLA-C*12:03 = experiment: IEDB peptide-MHC binding, purified MHC/direct/fluorescence; filed as Kd, often an IC50 or EC50 that approximates it; ≥ and ≤ were set here for values at or beyond the usual limits of such assays
HLA-C*15:02 = experiment: as above; details: source organism: Mammarenavirus choriomeningitidis
HLA-A*23:01 = experiment: IEDB peptide-MHC binding, purified MHC/competitive/radioactivity; filed as Kd, often an IC50 or EC50 that approximates it; ≥ and ≤ were set here for values at or beyond the usual limits of such assays; details: source organism: Lassa virus Josiah
HLA-A*24:02 [8] = experiment: as above; details: source organism: Lassa virus Josiah
HLA-A*29:02 = experiment: as above; details: source organism: Lassa virus Josiah
[9] = source organism: Escherichia coli O6
[10] = source organism: Escherichia coli O157:H7
[11] = source organism: Hepatitis B virus
[12] = source organism: Orthohantavirus sinnombreense
[13] = source organism: Vibrio cholerae
[14] = source organism: Vibrio cholerae RC385
[15] = source organism: Influenza A virus (A/Turkey/MO/24093/99(H1N2))
[16] = source organism: Influenza A virus (A/Puerto Rico/8/34/Mount Sinai(H1N1))
[17] = source organism: Influenza A virus(A/swine/Henan/5/2004(H9N2))
[18] = source organism: Salmonella enterica
[19] = source organism: Mammarenavirus lassaense
[20] = source organism: Influenza A virus (A/Wisconsin/4755/1994(H1N1))
[21] = source organism: Mycobacterium tuberculosis variant bovis BCG str. Pasteur 1173P2

Kd (HLA-A*01:01; [9]): 3.15 µM | Kd (HLA-A*02:01 [1]; [10]): ≥ 20 µM | Kd (HLA-A*03:01; [10]): ≥ 20 µM | Kd (HLA-A*11:01; [10]): ≥ 20 µM | Kd (HLA-A*26:01 [2]; [10]): ≥ 20 µM | Kd (HLA-A*31:01; [10]): ≥ 20 µM | Kd (HLA-A*69:01; [9]): 1.54 µM | Kd (HLA-B*07:02; [10]): ≥ 20 µM | Kd (HLA-B*08:01; [10]): ≥ 20 µM | Kd (HLA-B*15:01; [10]): ≥ 20 µM | Kd (HLA-B*27:05; [10]): ≥ 20 µM | Kd (HLA-B*35:01; [9]): 2.1 µM | Kd (HLA-B*40:01; [10]): ≥ 20 µM | Kd (HLA-B*44:02; [10]): ≥ 20 µM | Kd (HLA-B*58:01; [10]): ≥ 20 µM
Sequence: AHGWSTFYL

Sequence: FHYQDPFPL
Kd (HLA-B*15:09; source organism: Yersinia enterocolitica subsp. enterocolitica 8081): ≤ 0.001 µM | Kd (HLA-B*39:01): ≤ 0.001 µM | Kd (HLA-C*03:03; source organism: Yersinia pestis Nepal516): 1.39 µM

Sequence: FLPNDFFPSA
IC50 (HLA-A*02:01 [3]; [11]): 0.0021 µM

Sequence: FPFWGCFVS
Kd (HLA-B*35:01; source organism: Rickettsia prowazekii): 0.002 µM

Sequence: FRYKSRCYV
Kd (HLA-A*01:01; [12]): ≥ 20 µM | Kd (HLA-A*02:19): ≥ 20 µM | Kd (HLA-A*03:01; [12]): ≥ 20 µM | Kd (HLA-B*07:02; [12]): ≥ 20 µM | Kd (HLA-B*08:01; [12]): ≥ 20 µM | Kd (HLA-B*15:01; [12]): ≥ 20 µM | Kd (HLA-B*18:01; [12]): ≥ 20 µM | Kd (HLA-B*40:01; [12]): ≥ 20 µM | Kd (HLA-B*44:02; [12]): ≥ 20 µM | Kd (HLA-B*46:01; [12]): ≥ 20 µM | Kd (HLA-B*48:01; [12]): ≥ 20 µM | Kd (HLA-B*57:01; [12]): ≥ 20 µM | Kd (HLA-B*58:01; [12]): ≥ 20 µM | Kd (HLA-C*06:02): 0.007 µM | Kd (HLA-A*26:01 [4]): ≥ 20 µM | Kd (HLA-B*15:17 [5]): ≥ 20 µM

Sequence: GLRWHVRAF
Kd (HLA-A*01:01; [13]): ≥ 20 µM | Kd (HLA-A*02:01 [1]; [13]): ≥ 20 µM | Kd (HLA-A*03:01; [13]): ≥ 20 µM | Kd (HLA-A*11:01; [13]): ≥ 20 µM | Kd (HLA-A*24:02 [6]; [13]): ≥ 20 µM | Kd (HLA-A*26:01 [2]; [14]): ≥ 20 µM | Kd (HLA-A*31:01; [13]): ≥ 20 µM | Kd (HLA-A*69:01; [13]): ≥ 20 µM | Kd (HLA-B*07:02; [13]): 0.407 µM | Kd (HLA-B*15:01; [13]): 0.0794 µM | Kd (HLA-B*15:09; [14]): ≥ 20 µM | Kd (HLA-B*27:05; [13]): ≥ 20 µM | Kd (HLA-B*40:01; [13]): ≥ 20 µM | Kd (HLA-B*44:02; [13]): ≥ 20 µM | Kd (HLA-B*58:01; [13]): ≥ 20 µM

Sequence: GMQIRGFVY
Kd (HLA-A*01:01; [15]): ≥ 20 µM | Kd (HLA-A*02:01 [1]; [15]): ≥ 20 µM | Kd (HLA-A*03:01; [16]): 1.13 µM | Kd (HLA-A*24:02 [6]; [15]): ≥ 20 µM | Kd (HLA-A*26:01 [2]; [17]): ≥ 20 µM | Kd (HLA-A*69:01; [15]): ≥ 20 µM | Kd (HLA-B*07:02; [15]): ≥ 20 µM | Kd (HLA-B*08:01; [15]): ≥ 20 µM | Kd (HLA-B*15:01; [16]): 0.26 µM | Kd (HLA-B*15:09; [17]): ≥ 20 µM | Kd (HLA-B*27:05; [15]): ≥ 20 µM | Kd (HLA-B*40:01; [15]): ≥ 20 µM | Kd (HLA-B*44:02; [15]): ≥ 20 µM | Kd (HLA-B*58:01; [15]): 4.75 µM

Sequence: ILSTLPETTV
IC50 (HLA-A*02:01 [3]; [11]): 0.233 µM

Sequence: NVHRSQFAQ
Kd (HLA-A*01:01; [18]): ≥ 20 µM | Kd (HLA-A*02:01 [1]; [18]): ≥ 20 µM | Kd (HLA-A*03:01; [18]): ≥ 20 µM | Kd (HLA-A*11:01; [18]): ≥ 20 µM | Kd (HLA-A*31:01; [18]): ≥ 20 µM | Kd (HLA-B*07:02; [18]): ≥ 20 µM | Kd (HLA-B*08:01; source organism: Salmonella enterica subsp. enterica serovar Typhimurium str. LT2): ≥ 20 µM | Kd (HLA-B*08:02): ≥ 20 µM | Kd (HLA-B*08:03): ≥ 20 µM | Kd (HLA-B*15:01; [18]): ≥ 20 µM | Kd (HLA-B*15:17 [7]): ≥ 20 µM | Kd (HLA-B*18:01; [18]): ≥ 20 µM | Kd (HLA-B*27:05; [18]): ≥ 20 µM | Kd (HLA-B*40:01; [18]): ≥ 20 µM | Kd (HLA-B*46:01; [18]): ≥ 20 µM | Kd (HLA-B*48:01; [18]): ≥ 20 µM | Kd (HLA-B*57:01; [18]): ≥ 20 µM | Kd (HLA-B*58:01; [18]): ≥ 20 µM | Kd (HLA-A*68:02): ≥ 20 µM

Sequence: QAYAAPQLF
IC50 (HLA-B*53:01): 0.0707 µM

Sequence: QLLWFHISCL
IC50 (HLA-A*02:01 [3]; [11]): 0.393 µM

IC50 (HLA-A*02:01 [3]; source organism: Homo sapiens): 0.731 µM
Sequence: RVASPTSGV

Sequence: VATVNAVTV
Kd (HLA-C*12:03; source organism: Leishmania major strain Friedlin): 0.018 µM

Sequence: YLISIFLHL
Kd (HLA-A*02:01 [1]; [19]): 0.0809 µM | Kd (HLA-A*69:01; [19]): 0.802 µM | Kd (HLA-C*15:02): ≥ 20 µM | Kd (HLA-A*23:01): 0.000422 µM | Kd (HLA-A*24:02 [8]): ≥ 67.7 µM | Kd (HLA-A*29:02): 0.0997 µM

Sequence: YRYTYRCHR
Kd (HLA-A*01:01; [20]): ≥ 20 µM | Kd (HLA-A*02:01 [1]; [20]): ≥ 20 µM | Kd (HLA-A*03:01; [20]): ≥ 20 µM | Kd (HLA-A*11:01; [20]): ≥ 20 µM | Kd (HLA-A*24:02 [6]; [20]): ≥ 20 µM | Kd (HLA-A*69:01; [20]): ≥ 20 µM | Kd (HLA-B*07:02; [20]): ≥ 20 µM | Kd (HLA-B*08:01; [20]): ≥ 20 µM | Kd (HLA-B*15:01; [20]): ≥ 20 µM | Kd (HLA-B*15:09; source organism: Influenza A virus(A/swine/Shandong/fZC/2003(H9N2))): ≥ 20 µM | Kd (HLA-B*27:05; [16]): 0.267 µM | Kd (HLA-B*40:01; [20]): ≥ 20 µM | Kd (HLA-B*44:02; [20]): ≥ 20 µM | Kd (HLA-B*46:01; [20]): ≥ 20 µM | Kd (HLA-B*58:01; [20]): 0.587 µM

Sequence: YVIEPAAGL
Kd (HLA-C*03:03; [21]): ≤ 0.001 µM | Kd (HLA-C*12:03; [21]): 0.023 µM
